The values that follow come from doi:10.1101/2023.04.09.536162v1.

Substrate in this data set: C[C@@H](O)[C@H](N)C(=O)O
Nature of the data set: purified protein. As to conditions: natural substrate.

B1: NmLTA (Neptunomonas marina) (protein)
chain: MASNDSCIEDTVSFTSDNIAAAAPEIVQAMAQACQGNAQPYGGDALTQNVEAQLKAIFECDLQLFLVPTGSAANAISLAALTPPWGAILCHQESHINNDECGAPEFFTAGAKLIAVAGTHGKLDPQALTQAARNKRGDVHSVEPTTVSITQATEVGSIYALDELNEIGQICRNEGLKLHMDGARFANALSALGCTPAEMTWKAGVDVLSFGATKNGSLCAEAIILFDKSYAQEIAFRRKRGGHLLSKMRFLSAQMHAYLADDLWLTNARHANLMAARLAAGLSALSRVSLIAPTESNIIFCRMPTKMIAALQQQGFQFYHDRWGDGIVRLVTSFATTQAQVDTFIAAAAQLNQNTD
In general, Km refers to the substrate concentration at which the rate is half of its maximum. As a reminder, the kcat is the maximal rate divided by the concentration of active sites. Turning to B1, the Michaelis-Menten constant (Km) is 12.3 mM and the kcat is 805.7 s⁻¹.
